In the supplement of paper PMC9732359:
± gives the uncertainty stated by the source.

Experiment: protein stability index of a GFP-peptide fusion (yeast GPS) (PSI 1-4); higher = more stable; sorted into four equal gates, so the index is relative within each strain
Conditions: pdr5∆
Method in brief: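 The protein stability index of a peptide was calculated by multiplying its read frequency in each gate by that gate's number and adding the products. The peptides were tiled 17-residue stretches of yeast proteins, fused downstream of GFP on a Cherry-expressing plasmid and carried in yeast as a pooled library. Mid-log cultures in leucine-free medium were sorted into four equal gates by GFP/Cherry ratio, and each gate's plasmids were PCR-amplified and Illumina-sequenced.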

Going from EPTVRIQAVFCLTKFQD [YCG1] to EPYARVSGDLNPIHVSR [FAS1], the protein stability index rises from 2.53 ± 0.046 to 2.92 ± 0.092.

Going from EPYHFISNYNTKYTDDM [SRB8] to EQELAHILLTELLAYQF [FAS2], the protein stability index falls from 2.98 ± 0.07 to 2.807 ± 0.025.

Going from EQHNLVKKGPVRLPTKV [RPS20] to EQKGQMAKKEGTPKTDS [MED4], the protein stability index rises from 2.61 ± 0.16 to 3 ± 0.22.

First: EQKITEIEDGQDGGVTP [RPO21]
Second: EQQKEELTDKLSALNSE [SMC1]
The protein stability index of the first is higher: 3.38 ± 0.067 for the first, 3.19 ± 0.11 for the second.

First: EQQPEQPQETEEHHEEE [RPT4]
Second: EQSVKTQNSRHYMVHEA [LIN1]
The protein stability index of the first is higher: 3.28 ± 0.12 for the first, 2.82 ± 0.11 for the second.

First: EQTVSAVTEATSTNGDS [RGR1]
Second: EQWITIESQMRDLILTE [PRP8]
The protein stability index of the first is higher: 3.29 ± 0.077 for the first, 3.1 ± 0.092 for the second.

Going from EREIKRRKFDPSSSENV [UBP6] to ERHGYIRGIVKQIVHDS [RPL2A], the protein stability index falls from 3.37 ± 0.071 to 1.84 ± 0.072.

Compared with ERKKSIGSQRGRRLSML [DSN1], ERLKVPILVTLVSDSEI [POP6] is lower in protein stability index: 2.53 ± 0.087 for the first, 1.86 ± 0.04 for the second.

First: ERLMTWKFKSLIEILRL [RRI2]
Second: ERSDLLPYLSDTCAVSF [YJR042W/NUP85]
The protein stability index of the first is lower: 2.01 ± 0.044 for the first, 2.46 ± 0.06 for the second.

First: ERSICALGEFADWDPES [YML031W/NDC1]
Second: ERYSDKYLKKRKIGISI [RPC31]
The protein stability index of the first is higher: 3.53 ± 0.092 for the first, 2.39 ± 0.23 for the second.

Going from ERYYELAFDKLNVPVFQ [ARP7] to ESEKLVTPEDVMTISSL [RPC82], the protein stability index rises from 2.17 ± 0.073 to 3.13 ± 0.078.

ESENFKIIALQPNEISF [RGR1] and ESHIDSRNNTLNVTPSK [SIR4] are within error of each other in protein stability index: 2.55 ± 0.11 for the first, 2.62 ± 0.038 for the second.

Going from ESILQMNQGEGEPEAGN [RPC34] to ESKLKIDPDTKAPNAVV [RPB11], the protein stability index falls from 3.18 ± 0.093 to 2.56 ± 0.22.

ESKSLLNLFSNVLKAPF [SIR4] and ESLRGILHVRAQYCYKN [SRP72] are within error of each other in protein stability index: 2.16 ± 0.13 for the first, 2.36 ± 0.11 for the second.

First: ESLVHSALCILKEQELV [BRR2]
Second: ESQQQDESLKDEATVPN [SWI3]
The protein stability index of the first is lower: 1.77 ± 0.079 for the first, 3.36 ± 0.09 for the second.

First: ESSHEQEEFVQFLQLDN [ECM29]
Second: ESSKALADSLDRCVDPE [DIS3]
The protein stability index of the first is higher: 3.31 ± 0.13 for the first, 2.27 ± 0.076 for the second.

Going from ESVELPLTHPELYEEMG [RPT2] to ETDDNIETVMTQEQFVK [SRB4], the protein stability index rises from 2.94 ± 0.074 to 3.23 ± 0.17.

ETFSTSAHQSPIMQTQM [SNF2] and ETIIFDSELNRALFETK [RRI1] are within error of each other in protein stability index: 2.8 ± 0.072 for the first, 2.66 ± 0.14 for the second.

Compared with ETISKLNEYKRETLVKT [SMC2], ETKTKKEKIKGLQDEIM [SMC4] is higher in protein stability index: 1.99 ± 0.046 for the first, 3.32 ± 0.13 for the second.

Going from ETKWDDADEKSSNLYET [YJR042W/NUP85] to ETNLQTFLPPLLLKLAS [ECM29], the protein stability index falls from 3.22 ± 0.15 to 1.85 ± 0.043.

First: ETRAELSQLCAVPLQIV [RPO21]
Second: ETVFNYRLMIKRLNFSF [GRR1]
The protein stability index of the first is higher: 2.32 ± 0.14 for the first, 1.3 ± 0.068 for the second.

Compared with EVAKKRSRKTVKAQRPI [RPL24A], EVIGYIAAGTYGKVYKA [SSN3] is lower in protein stability index: 3.29 ± 0.11 for the first, 2.25 ± 0.042 for the second.

EVLNRVASRHPSESEHP [YDL116W/NUP84] and EVNISSLDAREANFDLI [RPC40] are within error of each other in protein stability index: 3.17 ± 0.11 for the first, 3.37 ± 0.095 for the second.

First: EVNREEAIGFIRGSNKF [SMC3]
Second: EVNSKKKNKRALPNIEN [BRR2]
The protein stability index of the first is lower: 2.77 ± 0.11 for the first, 3.2 ± 0.096 for the second.

Going from EVQRILIELLTQMDGFD [RPT3] to EVRAISVAKIRFPETMD [RPO21], the protein stability index rises from 2.08 ± 0.081 to 2.87 ± 0.087.

Going from EVSALVRSLPKEEQPKQ [PRP8] to EVVEVQEETVVEQTAEV [RPS12], the protein stability index rises from 1.38 ± 0.082 to 3.36 ± 0.11.

First: EVYNVIASDGSYVNYRH [RPO21]
Second: EYALEAVKRGTCAVGVK [PRE6]
The protein stability index of the first is higher: 3.58 ± 0.085 for the first, 2.53 ± 0.094 for the second.

Compared with EYINNCKKNTKKCLKLA [POP4], EYQSLMSLKDKLLIQID [SMC1] is lower in protein stability index: 3.1 ± 0.13 for the first, 2.62 ± 0.082 for the second.

EYWAQRKKKFVLDVDPK [ISW2] and FAAIPEQGIELEHIDSK [FAS2] are within error of each other in protein stability index: 2.48 ± 0.26 for the first, 2.85 ± 0.21 for the second.

Compared with FANNLKSAISNNFRESD [SIR4], FATNEERQMNFLTNELI [SWI3] is lower in protein stability index: 2.59 ± 0.048 for the first, 2.32 ± 0.07 for the second.

Compared with FCPIVEEIVSNSSRFSD [YCS4], FDDNDSGNNYNDINISS [MED2] is higher in protein stability index: 1.35 ± 0.14 for the first, 3.19 ± 0.039 for the second.

Going from FDEEFDPFKTSSFNKRS [IRR1] to FDINRSHKEGRRVPKEL [SEC65], the protein stability index falls from 2.92 ± 0.061 to 2.52 ± 0.24.

FDNFLTEEELQAAVPDN [BRN1] and FDSELIHLKQKLSESLD [SMC3] are within error of each other in protein stability index: 2.71 ± 0.071 for the first, 2.88 ± 0.17 for the second.

Going from FDYSVILNSIPAAANLD [YJL039C/NUP192] to FEENDHPNRVLEHLHST [COR1], the protein stability index rises from 1.44 ± 0.083 to 2.95 ± 0.052.

Going from FEGDSNMLICAPTGSGK [BRR2] to FEIVDREKNSLESGKET [SMC4], the protein stability index rises from 1.43 ± 0.075 to 3.16 ± 0.18.

FEKNTILQQRSKINSTE [MED4] and FEQPSQREEAKKVVKKA [RPL27A] are within error of each other in protein stability index: 3.07 ± 0.084 for the first, 3.28 ± 0.13 for the second.

Compared with FEVLAPKWERVFLFDIE [RRI2], FGAKPDENKASATSKPA [YJL041W/NSP1] is higher in protein stability index: 2.72 ± 0.085 for the first, 2.87 ± 0.052 for the second.

First: FGAKSDEKKDSDSSKPA [YJL041W/NSP1]
Second: FGKKRLDLAGPLLAQLF [RPB2]
The protein stability index of the first is higher: 3.21 ± 0.099 for the first, 1.79 ± 0.16 for the second.

First: FGKTTANLPANSSTSPA [YLR335W/NUP2]
Second: FGNKPAGSTGFSFGQNN [YGR119C/NUP57]
The protein stability index of the first is higher: 3.14 ± 0.058 for the first, 1.77 ± 0.085 for the second.

Compared with FGPKKENRKKDESDSEN [YLR335W/NUP2], FGQKGGQAIVVHPDYLY [FAS2] is lower in protein stability index: 3.19 ± 0.086 for the first, 1.62 ± 0.04 for the second.

Compared with FGSGTQNNNTLGGGGLF [YGR119C/NUP57], FGTGKRLAKKVARRNAD [RPS24A] is higher in protein stability index: 2.94 ± 0.089 for the first, 3.31 ± 0.055 for the second.

First: FGVSFIYAGYDDRYGYQ [PRE9]
Second: FGYDIPLLDIVLKADRS [YML103C/NUP188]
The protein stability index of the first is lower: 2.61 ± 0.097 for the first, 2.81 ± 0.073 for the second.

First: FHILLKLILEWVAPQES [ECM29]
Second: FHTSFSAVVGPNGSGKS [SMC4]
The protein stability index of the first is lower: 2.08 ± 0.27 for the first, 3.18 ± 0.084 for the second.

Compared with FIEDLAPEQQVQQFAQL [UBP6], FIFQIIEITNSNDLCSQ [SRB8] is lower in protein stability index: 3.02 ± 0.046 for the first, 1.62 ± 0.049 for the second.

First: FILADAGLEITSDNLLT [RPP1B]
Second: FIRHVAKLNYKNLNPAS [ECM29]
The protein stability index of the first is higher: 2.77 ± 0.054 for the first, 1.16 ± 0.1 for the second.

First: FIRYDVKTPKKTKYILQ [CSN12]
Second: FISYHDKYLCMLKTCVF [NUT1]
The protein stability index of the first is lower: 2.29 ± 0.048 for the first, 2.95 ± 0.064 for the second.

Compared with FITNVQSISQNSSSSTP [SWI1], FKAEKLQIVNQLPANMV [RPC17] is higher in protein stability index: 2.63 ± 0.063 for the first, 3.07 ± 0.068 for the second.

First: FKAIHGSQLRLSEWEEY [YCS4]
Second: FKAMEDVIAWKNVLANS [ITC1]
The protein stability index of the first is lower: 1.58 ± 0.05 for the first, 2.95 ± 0.16 for the second.

In the case of FKKSKIDHINEESWEKV [SCL1], the protein stability index is reported as 3.05 ± 0.067.
